Measurements taken from the Human Domainome abundance scans (Beltran et al. 2025).
± gives the uncertainty stated by the source.

B1: Ras GTPase-activating protein 1, residues 281 to 341; numbered along this chain, P20936 (parent)
chain: RRRVRAILPYTKVPDTDEISFLKGDMFIVHNELEDGWMWVTNLRTDEQGLIVEDLVEEVGR
B2: Transcriptional regulator ERG, residues 117 to 197; numbered along this chain, P11308 (parent)
chain: NMTTNERRVIVPADPTLWSTDHVRQWLEWAVKEYGLPDVNILLFQNIDGKELCKMTKDDFQRLTPSYNADILLSHLHYLRE

Variants of: B1
Assay: abundance fitness (aPCA) (normalised: wild type 0, dead -1); higher = more abundant; growth selection in yeast, the domain comes from the species named
Settings: Homo sapiens

| Variant | abundance fitness |
| --- | --- |
| I51E | -0.899 ± 0.12 |
| I51R | -0.786 ± 0.044 |
| S20C | -0.318 ± 0.029 |
| S20F | -0.877 ± 0.067 |
| S20G | -0.386 ± 0.028 |
| E18P | -1.04 ± 0.12 |
| E18G | -0.507 ± 0.031 |
| E18V | -0.369 ± 0.029 |
| E18W | -1.28 ± 0.29 |
| E18T | -0.222 ± 0.038 |
| I28Y | -0.079 ± 0.022 |
| I28D | 0.029 ± 0.022 |
| I28H | -0.069 ± 0.022 |
| I28A | -0.068 ± 0.022 |
| I28C | -0.07 ± 0.021 |
| I28G | -0.604 ± 0.022 |
| I28P | -0.85 ± 0.04 |
| G49E | -0.766 ± 0.085 |
| G49V | -0.949 ± 0.049 |
| G49P | -0.846 ± 0.067 |
| G49H | -0.825 ± 0.053 |
| F21E | -0.866 ± 0.063 |
| F21N | -0.83 ± 0.03 |
| L50R | 0.142 ± 0.027 |
| L50H | -0.426 ± 0.036 |
| L50I | -0.03 ± 0.026 |

| Variant | abundance fitness |
| --- | --- |
| L50N | -0.828 ± 0.044 |
| R3S | -0.136 ± 0.025 |
| R3Y | -0.045 ± 0.031 |
| R3V | -0.1 ± 0.028 |
| R3W | -0.378 ± 0.054 |
| R61E | 0.234 ± 0.16 |
| R61Q | 0.044 ± 0.083 |
| R61K | 0.108 ± 0.074 |
| R1M | 0.087 ± 0.074 |
| R1F | 0.06 ± 0.058 |
| R1Q | -0.503 ± 0.39 |
| V52W | -0.047 ± 0.046 |
| V52G | 0.059 ± 0.024 |
| V52S | 0.013 ± 0.025 |
| M38P | -0.867 ± 0.098 |
| M38Q | -0.548 ± 0.17 |
| M38K | -0.414 ± 0.075 |
| M38C | -0.228 ± 0.028 |
| M38Y | -0.188 ± 0.028 |
| D25Y | -0.948 ± 0.051 |
| D25Q | -0.768 ± 0.22 |
| D25F | -0.822 ± 0.047 |
| D25A | -0.949 ± 0.066 |
| K12V | -0.788 ± 0.047 |
| K12E | -0.218 ± 0.11 |
| K12T | -0.7 ± 0.048 |

Variants of: B2
Assay: as above
Settings: Homo sapiens

| Variant | abundance fitness |
| --- | --- |
| L76P | -0.923 ± 0.3 |
| L76M | -0.262 ± 0.13 |
| L76C | -0.151 ± 0.1 |
| L76A | -0.342 ± 0.14 |
| L76R | -0.944 ± 0.15 |
| L76G | -0.802 ± 0.12 |
| L76K | -0.519 ± 0.2 |
| L76N | -0.794 ± 0.33 |
| L76Y | -0.663 ± 0.38 |
| L76I | 0.05 ± 0.32 |
| L76W | -0.411 ± 0.12 |
| L76Q | -0.928 ± 0.41 |
| L76H | -0.237 ± 0.25 |
| L76E | -0.742 ± 0.27 |
| L76S | -0.576 ± 0.19 |
| L76V | -0.105 ± 0.067 |
| S74Y | -0.018 ± 0.12 |
| S74W | -0.603 ± 0.15 |
| H77S | -0.026 ± 0.073 |
| H77A | 0.034 ± 0.065 |
| H77W | -0.166 ± 0.11 |
| H77K | 0.044 ± 0.1 |
| H77Y | -0.295 ± 0.18 |

| Variant | abundance fitness |
| --- | --- |
| H77L | -0.087 ± 0.067 |
| H77G | 0.194 ± 0.061 |
| H77D | -0.128 ± 0.11 |
| H77T | -0.119 ± 0.11 |
| H77E | 0.099 ± 0.079 |
| H77M | -0.24 ± 0.1 |
| H77N | 0.112 ± 0.1 |
| H77Q | -0.098 ± 0.1 |
| H77I | 0.142 ± 0.18 |
| H77V | -0.072 ± 0.065 |
| H77F | -0.226 ± 0.16 |
| H77R | 0.052 ± 0.05 |
| R80E | -0.166 ± 0.15 |
| R80K | -0.004 ± 0.1 |
| R80C | 0.178 ± 0.088 |
| R80G | -0.152 ± 0.054 |
| R80S | -0.109 ± 0.064 |
| R80Q | 0.071 ± 0.11 |
| R80H | 0.068 ± 0.47 |
| R80F | 0.003 ± 0.089 |
| R80V | -0.046 ± 0.055 |
| R80N | 0.193 ± 0.17 |
| R80M | 0.038 ± 0.08 |

| Variant | abundance fitness |
| --- | --- |
| R80P | -0.01 ± 0.083 |
| R80Y | -0.466 ± 0.24 |
| R80A | 0.021 ± 0.061 |
| E81H | 0.108 ± 0.18 |
| E81F | -0.339 ± 0.19 |
| E81Q | 0.016 ± 0.14 |
| E81M | -0.301 ± 0.17 |
| E81V | -0.155 ± 0.088 |
| E81Y | -0.058 ± 0.21 |
| E81W | -0.32 ± 0.086 |
| E81N | 0.557 ± 0.38 |
| E81L | 0.076 ± 0.14 |
| E81C | -0.05 ± 0.092 |
| E81D | 0.102 ± 0.14 |
| E81I | -0.152 ± 0.24 |
| E81A | -0.03 ± 0.089 |
| E81G | 0.138 ± 0.057 |
| E81P | -0.107 ± 0.15 |
| Y78I | 0.034 ± 0.089 |
| Y78Q | 0.2 ± 0.088 |
| Y78T | 0.173 ± 0.087 |
| Y78W | -0.22 ± 0.087 |
| Y78K | 0.103 ± 0.085 |

| Variant | abundance fitness |
| --- | --- |
| Y78F | -0.087 ± 0.13 |
| Y78H | -0.119 ± 0.13 |
| Y78S | 0.148 ± 0.056 |
| Y78P | -0.033 ± 0.08 |
| Y78L | 0.12 ± 0.051 |
| Y78N | 0.305 ± 0.094 |
| Y78V | 0.071 ± 0.065 |
| Y78C | 0.029 ± 0.13 |
| Y78E | 0.247 ± 0.059 |
| Y78A | 0.181 ± 0.053 |
| Y78M | 0.163 ± 0.078 |
| Y78D | 0.228 ± 0.081 |
| Y78G | 0.203 ± 0.044 |
| L79F | -0.215 ± 0.11 |
| L79V | 0.046 ± 0.05 |
| L79G | -0.195 ± 0.052 |
| L79N | -0.259 ± 0.23 |
| L79K | -0.014 ± 0.092 |
| L79Q | -0.007 ± 0.087 |
| L79D | -0.106 ± 0.12 |
| L79C | 0.114 ± 0.091 |
| L79E | -0.054 ± 0.086 |
| L79H | -0.076 ± 0.12 |

| Variant | abundance fitness |
| --- | --- |
| L79P | -0.19 ± 0.1 |
| L79M | 0.179 ± 0.098 |
| L79R | -0.002 ± 0.056 |
| L79Y | -0.454 ± 0.18 |
| L79T | 0.021 ± 0.094 |
| L79I | 0.061 ± 0.11 |
| L79S | -0.141 ± 0.071 |
| H75T | -0.646 ± 0.23 |
| H75M | -1.02 ± 0.34 |
| H75V | -0.62 ± 0.13 |
| H75P | -0.561 ± 0.33 |
| H75I | -0.215 ± 0.21 |
| H75G | -0.156 ± 0.052 |
| H75N | 0.099 ± 0.13 |
| H75L | -0.316 ± 0.11 |
| H75Y | -0.113 ± 0.12 |
| H75Q | 0.038 ± 0.11 |
| H75F | -0.511 ± 0.16 |
| H75W | -1 ± 0.3 |
| H75D | 0.119 ± 0.095 |
| H75A | -0.01 ± 0.07 |
| H75R | 0.121 ± 0.05 |
| H75E | -0.163 ± 0.099 |
